Changes are numbered by the printed parent chain. Names and notes keep the numbering of the source.
T1: full-length Rnq1 (yeast, UniProt P25367 1-405)
T1 construct: also called FL Rnq1; Rnq1-WT
T1 sequence (looked up): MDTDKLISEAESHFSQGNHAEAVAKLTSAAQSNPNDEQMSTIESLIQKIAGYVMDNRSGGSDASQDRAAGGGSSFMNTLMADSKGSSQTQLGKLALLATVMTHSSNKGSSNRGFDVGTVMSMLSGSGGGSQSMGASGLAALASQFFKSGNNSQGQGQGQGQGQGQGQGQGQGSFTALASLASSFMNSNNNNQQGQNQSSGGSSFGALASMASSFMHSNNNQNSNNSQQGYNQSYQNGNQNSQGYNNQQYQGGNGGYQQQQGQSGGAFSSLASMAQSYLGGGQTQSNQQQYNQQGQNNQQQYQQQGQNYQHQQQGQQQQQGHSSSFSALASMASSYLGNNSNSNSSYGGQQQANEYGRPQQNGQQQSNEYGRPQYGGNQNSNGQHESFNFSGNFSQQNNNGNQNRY

T2: Sis1-FLRnq1 complex (Sis1-WT premixed with denatured Rnq1) (yeast, UniProt P25294 1-352; P25367 1-405)
T2 construct: also called Sis1-WT with client protein Rnq1
T2 sequence (looked up) 1: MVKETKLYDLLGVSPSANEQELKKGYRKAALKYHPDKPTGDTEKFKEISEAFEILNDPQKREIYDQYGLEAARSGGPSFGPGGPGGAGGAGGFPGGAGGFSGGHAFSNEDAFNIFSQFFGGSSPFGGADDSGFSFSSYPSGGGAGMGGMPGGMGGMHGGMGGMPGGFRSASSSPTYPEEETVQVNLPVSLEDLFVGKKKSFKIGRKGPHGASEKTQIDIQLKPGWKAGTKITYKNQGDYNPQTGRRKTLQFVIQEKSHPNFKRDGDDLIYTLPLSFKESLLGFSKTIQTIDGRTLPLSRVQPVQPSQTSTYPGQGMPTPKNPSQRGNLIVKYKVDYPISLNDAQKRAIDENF
T2 sequence (looked up) 2: T1 sequence (looked up)

T3: Sis1-S49V premixed with denatured Rnq1 (yeast, UniProt P25294 1-352; P25367 1-405, S49V)
T3 construct: also called Sis1-FLRnq1 complex (S49V)
T3 sequence (looked up) 1: T2 sequence (looked up) 1 with S49V
T3 sequence (looked up) 2: T1 sequence (looked up)

T4: Sis1-E53A premixed with denatured Rnq1 (yeast, UniProt P25294 1-352; P25367 1-405, E53A)
T4 construct: also called Sis1-FLRnq1 complex (E53A)
T4 sequence (looked up) 1: T2 sequence (looked up) 1 with E53A
T4 sequence (looked up) 2: T1 sequence (looked up)

T5: Sis1-E53K premixed with denatured Rnq1 (yeast, UniProt P25294 1-352; P25367 1-405, E53K)
T5 construct: also called Sis1-FLRnq1 complex (E53K)
T5 sequence (looked up) 1: T2 sequence (looked up) 1 with E53K
T5 sequence (looked up) 2: T1 sequence (looked up)

T6: Sis1-N56L premixed with denatured Rnq1 (yeast, UniProt P25294 1-352; P25367 1-405, N56L)
T6 construct: also called Sis1-FLRnq1 complex (N56L)
T6 sequence (looked up) 1: T2 sequence (looked up) 1 with N56L
T6 sequence (looked up) 2: T1 sequence (looked up)

B1: Sis1-WT (natural protein, yeast, UniProt P25294 1-352, looked up)
chain: T2 sequence (looked up) 1
notes: Sis1, essential yeast DNAJ (Hsp40) protein, homolog of human DNAJB6; Cloned into pPROEx-Htb (hexa-His-tag, TEV site); also called Hsp40; wild-type Sis1; source: E. coli Lemo21(DE3), purified (Talon cobalt resin, TEV cleavage, second Talon pass)
B2: Sis1-E53A (natural protein, yeast, UniProt P25294 1-352, looked up)
chain: T2 sequence (looked up) 1 with E53A
notes: Sis1, essential yeast DNAJ (Hsp40) protein, with the J-domain mutation E53A; also called homologous to DNAJB6-E54A; LGMDD1 J-domain mutant; source: E. coli Lemo21(DE3), purified (Talon cobalt resin, TEV cleavage, second Talon pass)
B3: Sis1-E53K (natural protein, yeast, UniProt P25294 1-352, looked up)
chain: T2 sequence (looked up) 1 with E53K
notes: Sis1, essential yeast DNAJ (Hsp40) protein, with the J-domain mutation E53K; also called homologous to DNAJB6-E54K; LGMDD1 J-domain mutant; source: E. coli Lemo21(DE3), purified (Talon cobalt resin, TEV cleavage, second Talon pass)
B4: Sis1-S49V (natural protein, yeast, UniProt P25294 1-352, looked up)
chain: T2 sequence (looked up) 1 with S49V
notes: Sis1, essential yeast DNAJ (Hsp40) protein, with the J-domain mutation S49V; also called homologous to DNAJB6-A50V; LGMDD1 J-domain mutant; source: E. coli Lemo21(DE3), purified (Talon cobalt resin, TEV cleavage, second Talon pass)
B5: Sis1-N56L (natural protein, yeast, UniProt P25294 1-352, looked up)
chain: T2 sequence (looked up) 1 with N56L
notes: Sis1, essential yeast DNAJ (Hsp40) protein, with the J-domain mutation N56L; also called homologous to DNAJB6-S57L; LGMDD1 J-domain mutant; source: E. coli Lemo21(DE3), purified (Talon cobalt resin, TEV cleavage, second Talon pass)
B6: Ssa1-WT (natural protein)
chain: not shown
notes: Ssa1, yeast Hsp70; Cloned into pPROEx-Htb; cleavage of the tag follows from 'the remaining purification steps were analogous to those for Sis1-WT'; also called Hsp70; source: E. coli Rosetta 2(DE3), purified (Talon resin, steps analogous to Sis1)

Columns and labels:
Details in all cases: both partners purified
Ssa1-WT = biological target: B6; experiment: ELISA; Ssa1 (200 nM) immobilised in microtiter wells; dilutions of Sis1-WT or mutants (0-50 nM); bound Sis1 detected with an anti-Sis1 antibody; no client
full-length Rnq1 = biological target: T1, full-length Rnq1; experiment: ELISA; denatured substrate (FL Rnq1 or ΔN Rnq1 400 ng, luciferase 100 ng) immobilised in microtiter wells; dilutions of Sis1-WT or mutants (0-20 or 0-25 nM) in PBS-T with 0.5% BSA, overnight at room temperature; retained Sis1 detected with an anti-Sis1 antibody
[1] = biological target: T2, Sis1-FLRnq1 complex (Sis1-WT premixed …); experiment: ELISA; denatured Rnq1 premixed with Sis1-WT or mutants (5 nM), 1 h room temperature, adsorbed onto wells; dilutions of Ssa1-WT (0-20 nM); bound Ssa1 detected with an anti-Ssa1 (Hsp70) antibody
[2] = biological target: T3, Sis1-S49V premixed with denatured Rnq1; experiment: as above
[3] = biological target: T4, Sis1-E53A premixed with denatured Rnq1; experiment: as above
[4] = biological target: T5, Sis1-E53K premixed with denatured Rnq1; experiment: as above
[5] = biological target: T6, Sis1-N56L premixed with denatured Rnq1; experiment: as above

Chain of Ssa1-WT (P10591 whole entry): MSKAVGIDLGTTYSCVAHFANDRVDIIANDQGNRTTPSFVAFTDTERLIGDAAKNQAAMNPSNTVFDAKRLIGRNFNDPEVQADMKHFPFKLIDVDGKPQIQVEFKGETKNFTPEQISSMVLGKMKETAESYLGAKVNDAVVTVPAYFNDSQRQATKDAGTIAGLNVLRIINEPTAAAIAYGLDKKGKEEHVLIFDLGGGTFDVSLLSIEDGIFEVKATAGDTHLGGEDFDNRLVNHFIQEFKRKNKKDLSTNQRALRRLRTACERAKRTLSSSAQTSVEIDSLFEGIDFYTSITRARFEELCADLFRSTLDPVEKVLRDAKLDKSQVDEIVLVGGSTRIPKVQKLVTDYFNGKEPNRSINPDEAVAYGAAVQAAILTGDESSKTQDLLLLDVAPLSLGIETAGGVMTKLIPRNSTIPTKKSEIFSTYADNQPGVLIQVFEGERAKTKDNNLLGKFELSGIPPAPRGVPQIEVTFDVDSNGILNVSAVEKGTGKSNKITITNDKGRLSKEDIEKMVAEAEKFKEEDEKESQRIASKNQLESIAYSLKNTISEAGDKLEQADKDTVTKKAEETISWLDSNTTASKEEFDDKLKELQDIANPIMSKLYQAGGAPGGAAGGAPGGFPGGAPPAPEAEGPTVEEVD

| binding result (Ssa1-WT) | binding result (full-length Rnq1) | binding result [1] | binding result [2] | binding result [3] | binding result [4] | binding result [5] | Binder |
| --- | --- | --- | --- | --- | --- | --- | --- |
| binds | binds |  |  |  |  |  | B1 |
| binds | binds |  |  |  |  |  | B2 |
| binds | binds |  |  |  |  |  | B3 |
| binds | binds |  |  |  |  |  | B4 |
| binds | binds |  |  |  |  |  | B5 |
|  |  | binds | binds | binds | binds | binds | B6 |

From PMC12756002, “Mutations in Hsp40 co-chaperone change the canonical interdomain interactions stimulating LGMDD1 myopathy” (The Journal of Biological Chemistry, 2025)
